B2: KLRC1/KLRD1 heterodimeric receptor (receptor)
chain 1: not shown
chain 2: MAVFKTTLWRLISGTLGIICLSLMSTLGILLKNSFTKLSIEPAFTPGPNIELQKDSDCCSCQEKWVGYRCNCYFISSEQKTWNESRHLCASQKSSLLQLQNTDELDFMSSSQQFYWIGLSYSEEHTAWLWENGSALSQYLFPSFETFNTKNCIAYNPNGNALDESCEDKNRYICKQQLI
notes: whole, on cells; CT26 cells co-transduced with both lentiviral constructs; also called KLRC1&D1 heterodimer; KLRC1/D1

Key:
[1] = target: T1, recombinant human IGSF8 extracellular domain tagged by a human Fc region (IGSF8-hFc) (human, UniProt Q969P0 28-579); experiment: flow cytometry, IGSF8-hFc on CT26 cells with single-domain KIR3DL1/2 constructs, MFI normalized to Thy1.1
T1 construct: extracellular domain; also called IGSF8-Fc; IGSF8 hFc fusion protein; not shown: human Fc region
T1 sequence (looked up): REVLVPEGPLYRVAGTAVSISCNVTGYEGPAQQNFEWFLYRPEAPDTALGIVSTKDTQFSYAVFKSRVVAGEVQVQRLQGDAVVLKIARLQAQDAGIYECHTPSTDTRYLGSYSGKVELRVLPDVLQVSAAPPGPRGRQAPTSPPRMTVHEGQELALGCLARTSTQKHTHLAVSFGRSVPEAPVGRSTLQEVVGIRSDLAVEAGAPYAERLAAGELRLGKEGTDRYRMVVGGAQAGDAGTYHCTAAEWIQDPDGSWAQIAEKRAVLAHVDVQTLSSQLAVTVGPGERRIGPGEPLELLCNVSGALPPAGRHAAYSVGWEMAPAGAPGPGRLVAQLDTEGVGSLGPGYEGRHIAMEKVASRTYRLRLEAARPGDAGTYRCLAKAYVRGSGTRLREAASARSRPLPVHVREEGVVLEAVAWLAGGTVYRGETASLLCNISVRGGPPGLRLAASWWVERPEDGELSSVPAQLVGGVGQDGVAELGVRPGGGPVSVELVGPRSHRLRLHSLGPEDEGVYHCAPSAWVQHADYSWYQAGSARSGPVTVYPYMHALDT

[2] = target: T2, human IGSF8 expressed on the cell surface (human, UniProt Q969P0 28-613); experiment: cell-cell conjugate assay, labelled MC38 and CT26 cells mixed 1:1, flow cytometry
T2 construct: whole, on cells; Forced expression on CT26, MC38 or K562 cells; endogenous on A431 cells; also called full-length IGSF8
T2 sequence (looked up): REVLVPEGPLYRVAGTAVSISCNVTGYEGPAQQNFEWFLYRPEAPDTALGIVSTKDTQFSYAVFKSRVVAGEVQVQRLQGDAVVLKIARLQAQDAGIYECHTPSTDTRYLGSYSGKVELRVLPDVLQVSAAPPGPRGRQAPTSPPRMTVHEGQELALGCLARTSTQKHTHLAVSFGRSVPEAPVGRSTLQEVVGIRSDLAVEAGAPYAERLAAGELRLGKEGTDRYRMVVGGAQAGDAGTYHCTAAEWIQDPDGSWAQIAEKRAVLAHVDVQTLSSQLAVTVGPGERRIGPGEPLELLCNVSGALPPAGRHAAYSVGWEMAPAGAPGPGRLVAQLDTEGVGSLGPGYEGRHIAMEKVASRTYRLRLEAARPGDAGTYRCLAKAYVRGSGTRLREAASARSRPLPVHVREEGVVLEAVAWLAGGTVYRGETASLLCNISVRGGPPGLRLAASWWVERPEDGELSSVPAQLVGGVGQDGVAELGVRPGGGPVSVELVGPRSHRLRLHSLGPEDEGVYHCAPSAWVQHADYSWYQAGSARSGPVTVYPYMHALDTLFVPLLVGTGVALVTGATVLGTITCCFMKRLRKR
Source text: A competition assay (FIG. 23A) was then designed to test whether these seven mAbs block IGSF8 binding to the KIR3DL1/2 or the KLRC1&D1 heterodimer receptors. MC38 cells (a cell line derived from C57BL6 murine colon adenocarcinoma cells from NIH) with forced expression of IGSF8 protein on cell surface by lentiviral delivery of a human IGSF8-expression construct were labeled with CFSE (Carboxyfluorescein succinimidyi ester, Thermo). CT26 cells with forced expression of either KIR3DL1/2 or KLRC1&D1 were labeled with CellTrace Far Red (Thermo). The MC38 cells were then mixed at a 1:1 ratio with the CT26 cells for about an hour at room temperature. The formation of MC38 and CT26 cell/cell conjugates was assessed by flow cytometry.

[3] = target: T1, recombinant human IGSF8 extracellular …; experiment: flow cytometry, IGSF8-hFc on transduced CT26 cells, MFI normalized to Thy1.1 expression
Description: (§1) KLRC1 also contains a ITIM motif in its intracellular domain, and was known to be a inhibitory receptor of NK or CD8⁺ T cells as part of a heterodimer with KLRD1 on the cell surface. […] Specifically, 100,000 CT26 cells overexpressing the antigens (KIRs or KLRs) were washed with PBS buffer containing 2% FBS, and incubated with 100 μL IGSF8 recombinant proteins or antibodies (5 μg/mL) for 30 minutes on ice. Cells were then washed twice with wash buffer, and incubated with 100 μL of 1:100 anti-human Fc-PE antibody for 15 minutes on ice. Cells were washed twice with wash buffer and analyzed on a FACS analyzer (CytoFlex, Beckman). In these experiments, the mean fluorescence intensity (MFI) of IGSF8 binding to different CT26 cells were normalized by the expression of different KLRs on CT26 cells using an anti-thy1.1 mAb via flow cytometry.

[4] = target: T3, IGSF8 protein without D1 domain (UniProt Q969P0 150-579, limits assumed); experiment: flow cytometry, CT26 cells expressing IGSF8-D24 (IGSF8 without D1)
T3 construct: domain: D2-D4 (without D1); also called D24; D2-4
T3 sequence (looked up): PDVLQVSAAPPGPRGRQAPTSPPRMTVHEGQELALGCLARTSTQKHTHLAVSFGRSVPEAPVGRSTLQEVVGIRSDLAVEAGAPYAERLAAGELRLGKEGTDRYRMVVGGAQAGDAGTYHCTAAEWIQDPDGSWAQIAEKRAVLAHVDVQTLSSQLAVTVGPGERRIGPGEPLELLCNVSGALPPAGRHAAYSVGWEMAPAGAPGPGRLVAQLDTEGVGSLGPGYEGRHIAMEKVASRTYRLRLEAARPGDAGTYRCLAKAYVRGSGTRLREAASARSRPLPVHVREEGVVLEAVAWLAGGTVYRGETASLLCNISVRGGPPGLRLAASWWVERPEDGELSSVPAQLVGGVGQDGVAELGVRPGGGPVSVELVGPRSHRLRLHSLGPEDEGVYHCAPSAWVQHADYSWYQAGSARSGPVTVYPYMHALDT

[5] = target: B2; experiment: flow cytometry, hFc fusion proteins on transduced CT26 cells, MFI normalized
Description: (§2) For this experiment, different human KIR receptors (KIR2DL1, KIR2DL2, KIR2DL3, KIR2DL4, KIR2DL5A, KIR2DL5B, KIR3DL1, KIR3DL2, KIR3DL3) were first cloned into a proprietary lentiviral vector containing a thy1.1 tag (FIG. 17A). Then mouse CT26 cells, were transducted by these lentiviral constructs, and IGSF8 binding was tested with biotin-labelled recombinant IGSF8 hFc fusion protein. The mean fluorescence intensity (MFI) of IGSF8 binding to different CT26 cells were normalized by the expression of different KIRs on CT26 cells using an anti-thy1.1 mAb (Biolegend) via flow cytometry.
as §1

KIR3DL2 = target: T4, KIR3DL2 (human, UniProt P43630 22-455); experiment: as above
T4 construct: whole, on cells; On mouse CT26 cells, lentiviral vector with a thy1.1 tag; also called KIR3DL1/2
Description: as §2, §1

KIR3DL1 = target: T5, KIR3DL1 (human, UniProt P43629 22-444); experiment: as above
T5 construct: whole, on cells; On mouse CT26 cells, lentiviral vector with a thy1.1 tag; also called KIR3DL1/2
Description: as §2, §1

T5 sequence (P43629 22-444): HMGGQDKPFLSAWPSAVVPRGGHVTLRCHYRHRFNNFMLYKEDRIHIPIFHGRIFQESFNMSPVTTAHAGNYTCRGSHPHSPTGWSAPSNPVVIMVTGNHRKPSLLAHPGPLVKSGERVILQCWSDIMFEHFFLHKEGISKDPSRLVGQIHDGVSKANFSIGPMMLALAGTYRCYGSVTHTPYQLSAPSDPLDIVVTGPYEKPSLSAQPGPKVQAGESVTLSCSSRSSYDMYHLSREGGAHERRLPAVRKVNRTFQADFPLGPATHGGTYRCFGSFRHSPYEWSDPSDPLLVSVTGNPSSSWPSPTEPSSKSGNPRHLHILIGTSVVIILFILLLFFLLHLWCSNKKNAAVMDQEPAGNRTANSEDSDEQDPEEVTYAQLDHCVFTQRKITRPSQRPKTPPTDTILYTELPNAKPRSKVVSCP
T4 sequence (P43630 22-455): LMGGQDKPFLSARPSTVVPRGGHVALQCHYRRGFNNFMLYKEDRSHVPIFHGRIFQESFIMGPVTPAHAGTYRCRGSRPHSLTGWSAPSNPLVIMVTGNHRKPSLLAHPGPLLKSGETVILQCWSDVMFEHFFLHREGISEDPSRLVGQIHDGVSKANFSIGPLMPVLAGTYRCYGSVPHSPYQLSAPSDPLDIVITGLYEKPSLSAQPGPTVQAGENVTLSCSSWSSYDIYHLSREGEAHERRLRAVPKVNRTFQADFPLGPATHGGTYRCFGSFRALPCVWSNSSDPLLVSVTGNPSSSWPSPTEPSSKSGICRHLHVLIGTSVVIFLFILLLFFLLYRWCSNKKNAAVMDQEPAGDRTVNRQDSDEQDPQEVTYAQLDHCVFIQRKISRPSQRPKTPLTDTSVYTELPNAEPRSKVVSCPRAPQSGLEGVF

B1: KIR3DL1 D3 construct (receptor, human, UniProt P43629 222-316, looked up)
chain: EKPSLSAQPGPKVQAGESVTLSCSSRSSYDMYHLSREGGAHERRLPAVRKVNRTFQADFPLGPATHGGTYRCFGSFRHSPYEWSDPSDPLLVSVT
notes: domain: D3; On CT26 cells, thy1.1 tag vector; also called D1/D3 construct
binding result [1]: no binding

B2
binding result [2]: binds | binding result [3]: binds

B3: Antibody C30 (B34) (antibody, human IgG1, V domains shown)
VH: EVQLLESGGGLVQPGGSLRLSCAASGFTFSSYAMSWVRQAPGKGLEWVSGITGSGGSTYYADSVKGRFTISRDNSKNTLYLQMNSLRAEDTAVYYCARGRQVDKWGQGTLVTVSS
VL: DIMLTQSPSSLSASVGDRVTITCRASQSIHNYLNWIQQTPGKAPKLLVFAASTLQRGVPPRYSGRGSGTEFTLTISSLQPEDFATYYCQQSYTTPLTFGGGTKVEIRR
notes: Fully human, expressed in CHO cells; also called mAb-B34 (C30)
binding result [4]: no binding

B4: D1 domain of IGSF8 protein (ligand, UniProt Q969P0 28-149, looked up)
chain: REVLVPEGPLYRVAGTAVSISCNVTGYEGPAQQNFEWFLYRPEAPDTALGIVSTKDTQFSYAVFKSRVVAGEVQVQRLQGDAVVLKIARLQAQDAGIYECHTPSTDTRYLGSYSGKVELRVL
notes: domain: D1; also called D1 (Ig-V set) ECD of IGSF8
binding result [5]: binds | binding result (KIR3DL2): binds | binding result (KIR3DL1): binds

B5: KIR3DL2 D3 construct (receptor, human, UniProt P43630 222-316, looked up)
chain: EKPSLSAQPGPTVQAGENVTLSCSSWSSYDIYHLSREGEAHERRLRAVPKVNRTFQADFPLGPATHGGTYRCFGSFRALPCVWSNSSDPLLVSVT
notes: as for B1
binding result [1]: no binding

— patent publication US20240343798A1 (GV20 THERAPEUTICS, published 2024)
